This test deals with rNaV1.3 channels (rat), P08104. The test can be described thus: cell-based or functional assay.
Chain of rNaV1.3 channels (rat), P08104 (P08104 whole entry): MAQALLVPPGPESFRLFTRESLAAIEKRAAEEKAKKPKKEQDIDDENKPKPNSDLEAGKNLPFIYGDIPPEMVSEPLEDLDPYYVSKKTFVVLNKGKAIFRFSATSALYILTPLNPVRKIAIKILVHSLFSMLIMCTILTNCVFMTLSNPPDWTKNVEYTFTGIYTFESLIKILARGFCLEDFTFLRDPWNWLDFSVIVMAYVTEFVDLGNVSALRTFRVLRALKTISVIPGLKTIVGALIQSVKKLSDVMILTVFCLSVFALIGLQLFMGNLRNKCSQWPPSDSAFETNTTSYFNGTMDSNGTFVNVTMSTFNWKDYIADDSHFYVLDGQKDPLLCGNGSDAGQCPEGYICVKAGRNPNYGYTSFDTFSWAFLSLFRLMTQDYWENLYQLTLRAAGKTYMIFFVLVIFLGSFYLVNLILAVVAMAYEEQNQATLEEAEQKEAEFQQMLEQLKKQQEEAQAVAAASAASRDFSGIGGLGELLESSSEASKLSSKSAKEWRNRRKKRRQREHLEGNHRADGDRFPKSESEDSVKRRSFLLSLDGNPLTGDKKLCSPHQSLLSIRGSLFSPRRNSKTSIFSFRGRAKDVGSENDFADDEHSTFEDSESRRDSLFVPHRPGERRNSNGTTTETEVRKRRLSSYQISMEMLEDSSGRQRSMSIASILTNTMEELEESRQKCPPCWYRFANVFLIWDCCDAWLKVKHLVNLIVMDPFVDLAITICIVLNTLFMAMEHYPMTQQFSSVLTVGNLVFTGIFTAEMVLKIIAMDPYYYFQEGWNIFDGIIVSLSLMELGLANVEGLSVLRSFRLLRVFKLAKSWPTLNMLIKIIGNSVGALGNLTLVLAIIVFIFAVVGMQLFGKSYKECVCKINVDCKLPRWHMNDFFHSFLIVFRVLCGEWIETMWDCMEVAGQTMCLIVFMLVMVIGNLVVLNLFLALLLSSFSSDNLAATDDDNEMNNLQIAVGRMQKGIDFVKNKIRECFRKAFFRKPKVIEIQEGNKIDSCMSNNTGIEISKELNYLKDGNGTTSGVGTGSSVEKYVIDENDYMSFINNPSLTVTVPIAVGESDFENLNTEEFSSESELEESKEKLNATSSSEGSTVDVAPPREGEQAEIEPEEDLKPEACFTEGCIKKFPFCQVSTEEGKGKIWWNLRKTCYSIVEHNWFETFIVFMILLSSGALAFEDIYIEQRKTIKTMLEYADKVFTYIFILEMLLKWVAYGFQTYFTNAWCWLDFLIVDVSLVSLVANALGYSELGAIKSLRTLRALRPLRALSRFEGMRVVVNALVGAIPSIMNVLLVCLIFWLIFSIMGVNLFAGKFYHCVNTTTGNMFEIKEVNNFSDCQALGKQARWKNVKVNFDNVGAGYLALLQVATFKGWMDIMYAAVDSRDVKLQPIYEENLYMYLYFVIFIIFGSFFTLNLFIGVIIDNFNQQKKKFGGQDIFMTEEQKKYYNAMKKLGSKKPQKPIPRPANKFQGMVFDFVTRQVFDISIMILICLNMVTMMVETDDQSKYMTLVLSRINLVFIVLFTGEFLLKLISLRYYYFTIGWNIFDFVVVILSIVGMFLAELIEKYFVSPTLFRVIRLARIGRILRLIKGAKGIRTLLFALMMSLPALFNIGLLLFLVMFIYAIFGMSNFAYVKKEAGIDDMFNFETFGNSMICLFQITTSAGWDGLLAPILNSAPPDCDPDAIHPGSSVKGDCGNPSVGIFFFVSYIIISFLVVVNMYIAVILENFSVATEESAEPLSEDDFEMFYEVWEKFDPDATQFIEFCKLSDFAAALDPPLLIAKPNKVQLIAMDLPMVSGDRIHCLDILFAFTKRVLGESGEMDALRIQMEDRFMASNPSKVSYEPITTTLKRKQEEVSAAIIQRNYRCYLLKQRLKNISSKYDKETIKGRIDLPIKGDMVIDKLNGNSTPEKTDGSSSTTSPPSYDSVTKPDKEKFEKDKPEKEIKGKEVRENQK

Regarding DCLGFMRKCIPDNDKCCRPNLVCSRTHKWCKYVF (modifications not checked) [Peptide E], the IC50 Nav1.3 (µM); inhibition of channel current, patch clamp is 0.31 µM.

The record behind these values is patent US20110065647A1.
